Data as given in article doi:10.1101/2020.04.03.022855 (bioRxiv, 2020).

Target: the molecule itself
Assay: cross-linking

B1: Seventeen kilodalton protein (Skp), unlabelled (natural protein, Escherichia coli, UniProt P0AEU7 21-161, looked up)
chain: ADKIAIVNMGSLFQQVAQKTGVSNTLENEFKGRASELQRMETDLQAKMKKLQSMKAGSDRTKLEKDVMAQRQTFAQKAQAFEQDRARRSNEERGKLVTRIQTAVKSVANSQDIDLVVDANAVAYNSSDVKDITADVLKQVK
Q: Which “stoichiometry N” value does the source give for B1 here?
A: Its value is 3.
